Assay results reported in article doi:10.1101/2025.04.14.648684.

Key:
[1] = target: All4144 (GrpE homolog of Anabaena sp. PCC 7120), full length (Anabaena sp. PCC7120); test: cross-linking
[2] = target: All4144(68–214), N-terminal deletion mutant of All4144 lacking the HTH domain (Anabaena sp. PCC7120); test: cross-linking

All4144 (GrpE homolog of Anabaena sp. PCC 7120), full length (natural protein)
stoichiometry N [1]: 2

All4144(68–214), N-terminal deletion mutant of All4144 lacking the HTH domain (domain or fragment)
stoichiometry N [2]: 2
